# Results from patent publication US12708677B2, “Contrast agents, methods for preparing contrast agents, and methods of imaging” (Georgia State University Research Foundation, Inc., priority 2008, dated 2026).
# Values joined by “and” are separate entries in the source; they are usually repeats but may differ in a detail not shown here. Identical values can stand only once. Marks after values point to notes of the source that are not given here.
# B1: CA1.CD2: designed Gd^3+-binding protein, domain 1 of rat CD2 with ligand residues Glu15, Glu56, Asp58, Asp62, Asp64 (protein)
# chain: RDSGTVWGALGHGIELNIPNFQMTDDIDEVRWERGSTLVAEFKRKMKPFLKSGAFEIDANGDLDIKNLTRDDSGTYNVTVYSTNGTRILNKALDLRILE
# B2: Gd-CA1.CD2: CA1.CD2 in complex with Gd^3+ (protein)
# chain: B1 chain
# Columns and labels:
# [1] = Ca^2+ binding constant, dye competition / Tb^3+ FRET competition
# Text: Since metal selectivity for Gd^3+ over other physiological metal ions is for minimizing the toxicity of the agents,^39, 40 we measured metal binding constants using dye-competition assays with various chelate-metal buffer systems (Table 1). Low limit metal binding affinities of the proteins were also estimated based on Tb^3+-sensitized FRET and competition assays. […] This is considered for in vivo applications of the contrast agent as the phosphate concentration in serum is maintained at ~1.3 mM.^6, 9 The stability of a contrast agent in blood circulation is another factor for in vivo applications. We characterized the stability by incubating Gd-CA1.CD2 with 75% human serum at 37° C. for 3 and 6 hours.
# Metal binding affinity for Ca^2+ and Zn^2+ were determined using similar competition methods and specific dyes with proper Kd values.
# [2] = Gd^3+-binding affinity, dye competition titration with Fluo-5N; details: phosphate 50 mM
# Experimental: Gd^3+-binding Affinity Determination, […]-binding affinity of CA1.CD2 was determined by a competition titration with Fluo-5N applied as a Gd^3+ indicator. The fluorescence spectra of Fluo-5N were obtained with a fluorescence spectrophotometer (Photon Technology International, Inc.) with a 10 mm path length quartz cell at 22° C. Fluo-5N emission spectra were acquired at […] to 650 nm with an excitation at 488 nm. […] The experiment was performed with a gradual addition of CA1.CD2. An apparent constant, Kapp, was estimated by fitting the fluorescence emission intensity of Fluo-5N at 520 nm with different CA1.CD2 concentrations as a 1 to 1 binding model. Gd^3+-binding affinity of CA1.CD2, Kd2, was calculated with the following equation: […]
# Since metal selectivity for Gd^3+ over other physiological metal ions is for minimizing the toxicity of the agents,^39, 40 we measured metal binding constants using dye-competition assays with various chelate-metal buffer systems (Table 1). […]
# Gd^3+-binding affinities of CA1.CD2 and its pegylated variants were determined by a competition titration with Fluo-5N applied as a Gd^3+ indicator (Yang et al., JACS, 2008). The fluorescence spectra of Fluo-5N were obtained with a fluorescence spectrophotometer (Photon Technology International, Inc.) with a 10 mm path length quartz cell at 22° C. […]
# [3] = Water coordination number by terbium life time luminescence; format: physicochemical
# Experimental: Measurement of Water Coordination Number by Terbium Life Time Luminescence. The number of water ligands coordinated to Gd^3+-CA1.CD2 complex was determined by measuring Tb^3+ luminescence decay in H2O or D2O. Tb^3+ excited state lifetime was measured using a fluorescence spectrophotometer (Photon Technology International, Inc.) with a 10 mm path length quartz cell at 22° ° C. Following excitation at 265 nm with a XenoFlash (Photon Technology International, Inc.), Tb^3+ emission was monitored at 545 nm in a time series experiment in both H2O and D2O systems. Luminescence decay lifetime was obtained by fitting the acquired data with a mono-exponential decay function. H2O in CA1.CD2 solution was replaced with D2O by lypholization and re-dissolved in D2O at least three times. A standard curve correlating the Δkobs with water number under our experimental conditions was established by using well-characterized chelators, such as EDTA (q=3), DTPA (q=1), NTA (q=5), and Aquo Tb^3+ (q=9) solution with R^2=0.997.^26,27 Water number coordinated to Tb^3+-CA1.CD2 complex was then obtained by fitting the acquired Δkobs value to the standard curve.
# The numbers of water ligands coordinated to Gd^3+-CA1.CD2 and variants complex were determined by measuring Tb^3+ luminescence decay in H2O or D2O (Yang et al., 2008). Tb^3+ excited state lifetime was measured using a fluorescence spectrophotometer (Photon Technology International, Inc.) with a 10 mm path length quartz cell at 22° C. Following excitation at 265 nm with a XenoFlash (Photon Technology International, Inc.), Tb^3+ emission was monitored at 545 nm in a time series experiment in both H2O and D2O systems. Luminescence decay lifetime was obtained by fitting the acquired data with a mono-exponential decay function. H2O in CA1.CD2 solution was replaced with D2O by lypholization and re-dissolved in D2O at least three times. A standard curve correlating the Δkobs with water number under our experimental conditions was established by using well-characterized chelators, such as EDTA (q=3). DTPA (q=1), NTA (q=5), and Aquo Tb^3+ (q=9) solation with R^2=0.997.^26, 27 Water number coordinated to Tb^+-CA1.CD2 complex was then obtained by fitting the acquired Δkobs value to the standard curve.
# [4] = In vitro r1 and r2 proton relaxivity; format: physicochemical
# Experimental: Determination of r1 and r2 Relaxivity Values, Relaxation times, T1 and T2, were determined at 1.5, 3, 9.4 Tesla using a Siemens whole-body MR system (1.5, 3T) or a Bruker MRI scanner (9.4T). T1 was determined using inversion recovery and T2 using a multi-echo Carr-Purcell-Meiboom-Gill (CPMG) sequence. The contrast agent samples (200 μl) with different concentrations were placed in eppendorf tubes. The tubes were placed on a tube rack, which was placed in MRI scanners for the measurement of relaxation times r1 and r2 were calculated based on r1(mM^−1 S^−1)=(1/T1s−1/T1c)/C and r2(mM^−1 S^−1)=(1/T2s−1/T2c)/C, where T1s and T2s are relaxation times with contrast agent and T1c and T2c are relaxation times without contrast agent. C is the concentration of contrast agent in mM (the measured Gd^3+ concentrations by ICP-MS). […]
# CD-1 mice = experiment: Toxicity analyses and clinical pathology in mice
# Experimental: Toxicity Analyses. […] Tissue samples from kidney, liver, spleen, and lung were collected.
# One group of mice received (i.v. tail veil) 50 μl of saline-buffer (as control). […] Blood samples were collected from the experimental mice. Serum samples were prepared from the collected blood. Liver enzymes in serum samples, including Alanine transaminase (ALT), Alkaline phosphatase (ALP), Aspartate transaminase (AST), Gamma glutamyl transpeptidase (GGT), and bilirubin and urea nitrogen were analyzed by a commercially available source (MU Research Animal Diagnostic Laboratory). All clinical chemistry parameters were measured on an Olympus AU 400 analyzer.
# Tissue samples from kidney, liver, spleen, and lung were collected.
molecule,measurement,setting,value
B1,Metal binding constant (Log Ka) Ca^2+,[1],<2.22
same,disassociation constant (Kd) for Ca^2+,[1],≥ 6 mM
same,Log (KGd/KCa),[1]; metal selectivity,>9.84
same,removal of Gd^3+ from the protein by phosphate,[2],not able to remove the Gd^3+ from the protein
same,hydration number (water number in the coordination shell),[3],2.1 and 2
same,Tb^3+ life time,[3]; in D2O,"1,679 μs"
same,Tb^3+ life time,[3]; protein complex in H2O,859 μs
B2,r1 relative to Gd-DTPA,[4]; 1.5T,about 20 fold
same,r1,[4]; B0 1.5 T,up to 117 mM^−1 s^−1
same,r1,"[4]; B0 1.5 T, listed as CA1",117 mM⁻¹ s⁻¹
same,r1,[4]; B0 3 T,48 mM⁻¹ s⁻¹
same,r1,[4]; B0 9.4 T,6 mM⁻¹ s⁻¹
same,ALP,"CD-1 mice; 4.0 μmole/kg, n = 4",115.0 ± 0.2 U/L
same,ALT,"CD-1 mice; 4.0 μmole/kg, n = 4",49.0 ± 0.2 U/L
same,AST,"CD-1 mice; 4.0 μmole/kg, n = 4",280.0 ± 0.2 U/L
same,Direct Bili,"CD-1 mice; 4.0 μmole/kg, n = 4",0.0 mg/L
same,GGT,"CD-1 mice; 4.0 μmole/kg, n = 4",0.0 U/L
same,Total Bili,"CD-1 mice; 4.0 μmole/kg, n = 4",0.4 ± 0.2 mg/L
same,Total Urine Protein,"CD-1 mice; 4.0 μmole/kg, n = 4",5.2 ± 0.2 g/L
same,Urea Nitrogen,"CD-1 mice; 4.0 μmole/kg, n = 4",26.0 ± 0.2^d mg/L
same,"effects on liver enzymes (ALT, ALP, AST), serum urea nitrogen, bilirubin, total protein vs control mice",CD-1 mice; 48 hours post-contrast injection,negligible
same,acute toxicity,"CD-1 mice; ~2.4 μmole/kg, observed five days",did not exhibit acute toxicity
